Ends that are not written are not given here. * marks the point of attachment. Dansyl = CN(C)c1cccc2c(S(=O)(=O)*)cccc12
B1: Dansyl-… (peptide)
peptide: Dansyl-GRRANAALKAGELYKSILYGC
B2: … (SILY) peptide (peptide)
peptide: RRANAALKAGELYKSILYGC

Tests used:
collagen [1] = assay: fluorescence plate binding assay, collagen coated on 96-well high-binding plate, equilibrium fit
collagen [2] = assay: SPR (Biacore 2000), collagen immobilised on CM-3 chip, peptide in solution 100 µM to 1.5 µM, from on-off kinetics

Binder | Kd (collagen [1]) [nM] | Kd (collagen [2]) [nM]
B1 | 860 | –
B2 | – | 1200

Source: patent US20120100106A1
